Read-outs that look alike come from different tables or passages of the source.

Common to all, as to assay: EMSA
The target in data set [1] is T1, DRH-3 (Caenorhabditis elegans, UniProt Q93413 1-1119).
T1 sequence: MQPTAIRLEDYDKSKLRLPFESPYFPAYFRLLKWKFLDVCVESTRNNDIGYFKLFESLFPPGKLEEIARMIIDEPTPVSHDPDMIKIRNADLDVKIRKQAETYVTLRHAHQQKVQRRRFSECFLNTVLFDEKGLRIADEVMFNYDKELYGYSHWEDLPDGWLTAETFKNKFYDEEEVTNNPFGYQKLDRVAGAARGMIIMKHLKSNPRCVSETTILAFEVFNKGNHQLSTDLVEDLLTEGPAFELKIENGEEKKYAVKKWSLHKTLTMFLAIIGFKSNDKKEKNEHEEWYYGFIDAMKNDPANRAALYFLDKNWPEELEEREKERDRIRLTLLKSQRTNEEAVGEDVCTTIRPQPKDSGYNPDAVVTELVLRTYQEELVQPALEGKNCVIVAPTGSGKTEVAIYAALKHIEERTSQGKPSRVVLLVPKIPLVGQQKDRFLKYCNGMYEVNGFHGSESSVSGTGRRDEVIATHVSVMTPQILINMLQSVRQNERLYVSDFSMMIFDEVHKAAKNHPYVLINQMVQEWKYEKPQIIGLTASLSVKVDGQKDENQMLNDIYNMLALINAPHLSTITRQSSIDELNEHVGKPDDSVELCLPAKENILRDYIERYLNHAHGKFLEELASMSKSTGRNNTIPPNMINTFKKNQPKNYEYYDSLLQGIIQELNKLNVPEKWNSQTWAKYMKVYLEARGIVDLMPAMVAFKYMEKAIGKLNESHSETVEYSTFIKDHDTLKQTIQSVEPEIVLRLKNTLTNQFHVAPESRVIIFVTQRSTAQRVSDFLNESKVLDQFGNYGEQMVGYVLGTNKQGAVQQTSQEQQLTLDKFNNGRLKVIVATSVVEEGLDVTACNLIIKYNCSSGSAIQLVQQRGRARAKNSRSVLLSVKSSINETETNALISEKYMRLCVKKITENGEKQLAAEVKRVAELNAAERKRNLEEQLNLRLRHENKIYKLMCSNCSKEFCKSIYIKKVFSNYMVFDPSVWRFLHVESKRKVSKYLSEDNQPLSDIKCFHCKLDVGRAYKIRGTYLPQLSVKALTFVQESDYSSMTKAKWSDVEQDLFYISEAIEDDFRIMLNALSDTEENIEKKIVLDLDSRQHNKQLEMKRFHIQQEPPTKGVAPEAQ

Data set [2] deals with T1, DRH-3. This is another data set of the same source.
For data set [3], the target named is T2, ΔN-DRH3 (Caenorhabditis elegans, UniProt Q93413 300-1119).
T2 sequence: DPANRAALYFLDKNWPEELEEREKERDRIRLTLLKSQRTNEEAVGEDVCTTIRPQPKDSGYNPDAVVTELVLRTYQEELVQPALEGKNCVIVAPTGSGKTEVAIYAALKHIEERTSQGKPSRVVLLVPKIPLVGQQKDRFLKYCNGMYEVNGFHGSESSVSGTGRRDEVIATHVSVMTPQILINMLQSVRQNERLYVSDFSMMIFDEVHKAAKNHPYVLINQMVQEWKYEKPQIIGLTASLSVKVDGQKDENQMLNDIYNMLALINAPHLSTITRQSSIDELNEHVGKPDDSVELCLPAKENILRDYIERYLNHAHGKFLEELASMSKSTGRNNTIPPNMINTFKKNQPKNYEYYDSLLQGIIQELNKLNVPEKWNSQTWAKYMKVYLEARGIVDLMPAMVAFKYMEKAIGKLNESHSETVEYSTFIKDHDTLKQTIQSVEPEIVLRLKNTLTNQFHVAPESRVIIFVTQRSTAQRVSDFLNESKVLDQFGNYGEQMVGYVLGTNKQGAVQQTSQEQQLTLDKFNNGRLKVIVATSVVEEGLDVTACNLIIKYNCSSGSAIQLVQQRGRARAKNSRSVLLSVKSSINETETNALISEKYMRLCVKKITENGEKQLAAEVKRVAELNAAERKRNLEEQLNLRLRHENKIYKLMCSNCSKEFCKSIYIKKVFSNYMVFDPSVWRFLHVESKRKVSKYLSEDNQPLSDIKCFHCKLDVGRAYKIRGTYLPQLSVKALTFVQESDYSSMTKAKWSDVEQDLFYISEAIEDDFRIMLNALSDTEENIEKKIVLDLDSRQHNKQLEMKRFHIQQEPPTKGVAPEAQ

Data set [4] addresses T1, DRH-3. The source holds these as a separate data set.
Data set [5] concerns the target T2, ΔN-DRH3. This is another data set of the same source.
Data set [6] addresses T2, ΔN-DRH3. The source holds these as a separate data set.
Data set [7] deals with T3, MDA-5 (human, UniProt Q9BYX4 1-1025).
T3 sequence: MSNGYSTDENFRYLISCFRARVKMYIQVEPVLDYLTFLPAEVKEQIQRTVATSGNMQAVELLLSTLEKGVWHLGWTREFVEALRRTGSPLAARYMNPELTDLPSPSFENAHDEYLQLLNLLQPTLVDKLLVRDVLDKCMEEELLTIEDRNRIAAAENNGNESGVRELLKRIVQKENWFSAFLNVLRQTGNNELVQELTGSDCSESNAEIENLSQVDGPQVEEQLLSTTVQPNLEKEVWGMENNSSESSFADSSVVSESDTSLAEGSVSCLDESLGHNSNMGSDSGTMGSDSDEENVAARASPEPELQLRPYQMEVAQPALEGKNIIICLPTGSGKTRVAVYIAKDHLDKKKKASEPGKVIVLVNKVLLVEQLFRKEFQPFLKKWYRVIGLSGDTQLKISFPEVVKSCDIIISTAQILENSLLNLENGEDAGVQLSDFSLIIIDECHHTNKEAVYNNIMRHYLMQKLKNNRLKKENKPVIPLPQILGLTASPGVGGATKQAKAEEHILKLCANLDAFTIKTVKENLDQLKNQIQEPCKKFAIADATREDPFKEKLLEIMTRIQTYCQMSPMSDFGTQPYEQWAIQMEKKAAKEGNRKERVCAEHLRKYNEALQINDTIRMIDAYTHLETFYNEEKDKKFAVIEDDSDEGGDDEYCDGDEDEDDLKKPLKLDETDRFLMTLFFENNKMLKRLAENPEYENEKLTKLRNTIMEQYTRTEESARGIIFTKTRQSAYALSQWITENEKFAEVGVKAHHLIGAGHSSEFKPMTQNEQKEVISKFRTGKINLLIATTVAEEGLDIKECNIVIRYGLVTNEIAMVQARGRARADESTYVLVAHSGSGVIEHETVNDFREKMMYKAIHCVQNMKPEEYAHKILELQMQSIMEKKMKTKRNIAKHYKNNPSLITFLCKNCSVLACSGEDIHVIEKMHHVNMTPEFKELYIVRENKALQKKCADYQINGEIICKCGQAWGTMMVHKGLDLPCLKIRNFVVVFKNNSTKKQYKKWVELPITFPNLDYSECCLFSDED

The target of data set [8] is T4, RIG-I (UniProt O95786 1-925).
T4 sequence: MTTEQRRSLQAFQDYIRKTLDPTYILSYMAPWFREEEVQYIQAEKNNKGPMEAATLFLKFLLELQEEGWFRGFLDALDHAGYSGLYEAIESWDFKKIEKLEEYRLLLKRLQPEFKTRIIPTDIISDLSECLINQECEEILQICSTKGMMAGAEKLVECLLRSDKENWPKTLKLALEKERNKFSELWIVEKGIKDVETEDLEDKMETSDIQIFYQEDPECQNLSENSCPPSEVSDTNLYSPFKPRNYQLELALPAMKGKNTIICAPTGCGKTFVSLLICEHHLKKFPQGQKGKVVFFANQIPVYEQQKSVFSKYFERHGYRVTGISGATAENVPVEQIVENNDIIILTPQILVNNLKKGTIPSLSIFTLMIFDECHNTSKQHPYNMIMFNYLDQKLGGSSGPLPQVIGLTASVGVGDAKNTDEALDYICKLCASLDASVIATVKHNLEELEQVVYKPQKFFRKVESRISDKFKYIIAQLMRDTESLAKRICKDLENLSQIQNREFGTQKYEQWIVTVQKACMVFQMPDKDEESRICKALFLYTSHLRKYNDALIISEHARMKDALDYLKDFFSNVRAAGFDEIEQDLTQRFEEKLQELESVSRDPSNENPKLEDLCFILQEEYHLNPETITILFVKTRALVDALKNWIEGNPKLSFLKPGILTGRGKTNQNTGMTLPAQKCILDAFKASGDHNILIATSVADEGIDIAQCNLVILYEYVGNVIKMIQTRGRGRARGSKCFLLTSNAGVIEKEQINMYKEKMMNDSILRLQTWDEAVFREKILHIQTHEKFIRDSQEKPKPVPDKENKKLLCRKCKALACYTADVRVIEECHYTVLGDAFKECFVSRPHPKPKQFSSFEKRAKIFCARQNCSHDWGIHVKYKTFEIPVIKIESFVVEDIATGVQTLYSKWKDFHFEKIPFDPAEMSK

Data set [9] has as its target T2, ΔN-DRH3. This is another data set of the same source.

B1: ds34 (dsRNA)
RNA 1: GGAGUGCAUCUCCUUCCCUCCUUUCCUUCUGGUC
RNA 2: GACCAGAAGGAAAGGAGGGAAGGAGAUGCACUCC
For orientation: Kd means the concentration at which binding is half-saturated. A low value points to higher affinity. In the case of B1, binding in data set [1] was put at a Kd of 384 ± 19 nM.

B2: ds12 (dsRNA)
RNA 1: GCCCAGACCACC
RNA 2: GGUGGUCUGGGC
With B2, the Kd in data set [2] stood at 839 ± 53 nM; in [3], 522 ± 67 nM.

B3: ds22 (dsRNA)
RNA 1: GGGUACAGACUGACUAGGAUCG
RNA 2: CGAUCCUAGUCAGUCUGUACCC
In [4], B3 returned a Kd of 230 ± 7 nM.

B4: ds18 (dsRNA)
RNA 1: GGGUAUAGACUGACUAGG
RNA 2: CCUAGUCAGUCUAUACCC
Molecule B4 came in with a dissociation constant (Kd) in data set [2] of 679 ± 135 nM.

B5: dsPPP12 (dsRNA)
RNA 1: GCCCAGACCACC
RNA 2: GGUGGUCUGGGC
modifications: 5' triphosphate on top strand
With B5, in [5], the Kd is 174 ± 12 nM.

B6: ds25 (dsRNA)
RNA 1: GGGUAUAGACUGACUAGGAUCUCCC
RNA 2: GGGAGAUCCUAGUCAGUCUAUACCC
Consider B6, for which the Kd in [6] was 376 ± 5 nM; in [1], 218 ± 7 nM; in [7], 123 ± 4 nM; in [8] it was 38 ± 6 nM.

B7: dsPPP25 (dsRNA)
RNA 1: GGGUAUAGACUGACUAGGAUCUCCC
RNA 2: GGGAGAUCCUAGUCAGUCUAUACCC
modifications: 5' triphosphate on top strand
B7 registered a Kd in data set [9] of 120 ± 6 nM.

The values are drawn from article PMC3973318.
